Reference: publication PMC4813479 (2015)
Each block holds one binder with its values, some of them ahead of it. Non-standard residues stand in square brackets, D forms with d. No end group written: not given here.

Target: recombinant αIIbβ3 headpiece
Test: FP

Kd: 50.9 µM
B1: AGDV-NH2 (amidated AGDV) (peptide)
peptide: AGDV-NH2

Kd: 67.6 µM
B2: AGDV-OCH3 (O-methylated AGDV) (peptide)
peptide: AGDV-OMe

Kd: 217 µM
B3: AGD(v) (D-valine in place of L-valine) (peptide)
peptide: AGD[dV]
